Biological target: VEGF (UniProt P15692)
Assay: SPR (BIAcore)
Details: Fab

VEGF, sequence (P15692 other isoform, or with tags, fused parts or gaps): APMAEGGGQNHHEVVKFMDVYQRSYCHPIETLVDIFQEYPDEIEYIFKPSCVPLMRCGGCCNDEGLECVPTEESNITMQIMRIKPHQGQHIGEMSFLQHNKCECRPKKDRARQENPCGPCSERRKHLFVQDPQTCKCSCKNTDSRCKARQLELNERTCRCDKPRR

Substance anti-VEGF Fab (Lucentics) control has a Kd of 0.103 nM.

Reference: US20190203192A1
